Experimental data: patent US20060246084A1

Molecular target: synthetic fragment of the mouse TLR-2 extracellular domain (mouse)

Binder: LMDKNLYGYTDEEIFKAS (modifications not checked) [LcrV193-210 synthetic peptide]
- Kd: 0.35 nM
